# The RNAGym collection of RNA variant scans (doi:10.1073/pnas.2313332121)
# B1: TPR t1 (parent)
# chain: GACCAAUCUGCCCUCAGAGCUCGAGAACAUCUUCGGAUGCAGAGGAGGCAGGCUUCGGUGGCGCGAUAGCGCCAACGUCCUCAACCUCCAAUGCAUCCCACCACAUGAUGAUGCCUGAAGAGCCUUGGUUUUUUG
# Variants of: B1
# Test: polymerase ribozyme fitness, log enrichment relative to wild type (log ratio); higher = more active; in vitro selection for triplet polymerase activity
# Method in brief: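 Mutant libraries of each subunit of a heterodimeric triplet polymerase ribozyme were built by PCR and transcribed. Each library went through one round of in vitro selection in triplicate: annealing with biotinylated primer, partner subunit and triplets, frozen incubation at −7 °C, gel excision of extended constructs, streptavidin-bead capture and RT-PCR. Input and output libraries were Illumina-sequenced; only genotypes with ≥10 input reads and ≥1 read per output were kept. Fitness is log2(genotype enrichment/wild-type enrichment), using inverse-variance-weighted replicate averages.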
row,Variant,polymerase ribozyme fitness (log ratio)
1,C4G A29G U54C,-2.97
2,C56G U78G A121C,1.64
3,C89U U96C,-0.473
4,A16U G45A C70U A118U,-2
5,G63A C88U G120A G122U,-0.851
6,C62U U106A,0.471
7,G45A G52U U130G,-1.91
8,C13G G93A C101G U112C U130A,-4.16
9,C31A A118U,-5.02
10,C8U U96A,-0.0448
11,G71A A91G,-2.18
12,A27U G48C C124G U126C G128A,-4.06
13,C12U G71C C97U,-0.967
14,A46G G48A C64A,-6.8
15,U14A C70G U126C G135U,-4.99
16,A6U C72G U78G U130C,-0.0449
17,G110A U133A,-1.59
18,C13G A29G G42A G117U,-6.21
19,U9G G113U,-1.66
20,C12U A18G A41U G47C C72U U109G C124G,-3.69
21,C3U G52A,-0.0464
22,U109A G117U,-5.72
23,G61A C94A,-0.27
24,A2G G77U C82G,-0.807

row,Variant,polymerase ribozyme fitness (log ratio)
1,A43C G61U C85U,-2.37
2,A6C G63U C115A U116C,-4.89
3,A6G C73A U112A G120U U130G,0.876
4,A37U G39C U54C U59G C89A U112A A121C,-4.68
5,G57A U59G,-0.399
6,G23U G120C,-3.8
7,U116A U130C,-2.68
8,G71A G93C A95C,-2.61
9,C12A A29C A84C,-3.21
10,G63U C73A,-2.51
11,C72U C97G,-4.65
12,U14G C15G,-5.02
13,G48A U96A,-1.94
14,G58C C62U C114A G127A U130G,-5.36
15,C12G A46U C49A,-1.36
16,U92G C94U,-4.52
17,A50U C88U A118U,-0.957
18,U54G C115U,-0.94
19,C70U C72G A75U,-1.29
20,C11A C88G,-2.99
21,C8G U14C U32C G48A G52U A95U G110A,-4.18
22,A16U C64A C89A A111G U130G,-5.81
23,A43U C70G G117A,-6.87
24,A50U A83C C89G,-5.74

row,Variant,polymerase ribozyme fitness (log ratio)
1,G63U G120U U126A,-1.69
2,A26G A43U A50U C72A,-5.38
3,A5U A6G G45C G69U A95U,-2.34
4,G17C A83C A119G,-1.01
5,G17A G63U,-3.9
6,U9C C22U G58A G61C C114A,-4.7
7,G36A C88U,-0.885
8,G48A C62A G69U,-5.25
9,G48U A50G U92C A108G,-5.83
10,C8U G36C G45U C64U C101A,-1.02
11,G47A C86A,-0.754
12,C15A C73G,-3.16
13,G52U U92C C114G,-5.11
14,U14A G127U,-3.57
15,C72A A111G A121C,1.27
16,A29U G58A G71C U112A,-1.32
17,A75G C79U,-0.682
18,A41U C114G,-2.94
19,C28G G60A,-3.53
20,G45U G63A U131A,-1.33
21,C73G G117U,-3.09
22,C40G G48U U92A,-4.05
23,G71A C99U C115A U129C G135U,-5.53
24,C11U C53U G69U A75U A84G,-1.1

row,Variant,polymerase ribozyme fitness (log ratio)
1,C34U G45U C88A C124G,-4.4
2,U96G U109C,-4.85
3,G107A U130G,-6.83
4,G45U U109A,-6.02
5,A29U U112A U126G,-2.25
6,G51A U54G C72G C80A C82G,-4.89
7,C62U G120C,0.344
8,A18C A83C,-1.95
9,A24U C53U,-6.23
10,C11U C15A C64U A84U,-2.56
11,G42C G57U U126G,-3.49
12,C11A C123G,1.15
13,A16C G45C G63A A100C U112C U129G,-2.73
14,C13G U59G G61U U112C,-1.62
15,C3U G52A A121U,1.95
16,U54C A84G U116G,-2.35
17,C34A U59C U112G,-4.39
18,C8G U32A,-3.34
19,C8A A16G C56A C73A,-0.741
20,G25U C31G U55G G71C C115A A119U G122A,-6.9
21,G63A C82U C94U A95C C115U U132C,-2.7
22,G69U C86G G120C,0.63
23,C56A G63A U78C,-4.18
24,G42A C62U A83C U112A,-2.06

row,Variant,polymerase ribozyme fitness (log ratio)
1,G45U C72U,-1.63
2,G47U U81A,-3.01
3,U59G U81A,-0.876
4,A26U A74G A121G,-1.18
5,C53A G71U C85A,-0.672
6,C11U G52A C56U C72G U109G,-5.83
7,C49A U132A,-0.997
8,G10U C40A C76G A83U C101A,-3.85
9,C72U A105U U131C U132A,-2.36
10,U7C U131A,0.00611
11,A41G G110A U125G U130G,-2.05
12,G10U A27G,-0.702
13,A50C C101A,-1.83
14,A27C C62U,-3.48
15,C11A A41U G47A U109A,-5.79
16,A50C C56A A66G,-2.8
17,A43C C85A C104U G113A,-2.96
18,C8U A111G,1.25
19,C49G A50U C72U,-1.85
20,A41U A111U,-4.55
21,U59A C82U A111G,-0.386
22,G47A C73G U125A G128A,-3.1
23,G19U C53G A91G,-3.77
24,G61C C80A U109G,-6.27

row,Variant,polymerase ribozyme fitness (log ratio)
1,C8G A46G C97U G120U U132A,1.67
2,G10A U55A G60C G122A,-0.167
3,U32C G69A C76G G77C,-4.8
4,G107U G113U,-6.69
5,U96C A105U,-3.06
6,C3U C28U A41G A43U A46C U92C C94U C124U,-4.65
7,G63C A91U,-2.7
8,C12U U96G,-0.215
9,G36U C123A,-0.268
10,A26G G60U,-2.17
11,C3A C123A,-1.18
12,U7A G47C,-1.26
13,C88U U92A,-2.45
14,G57A C79U C102G G107U C115G C124U U129G,-5.93
15,C34A G120C U130G,-3.21
16,C72A G93U G110U,-2.37
17,C11G U14G C15U A46C C73G C82A,-4.14
18,A18C U59A C89U G122A,-3.38
19,C12G C62G C72G U87A G113U U125G,-5.49
20,G36A C49G G69U A90G C97U G120C,0.538
21,G10C C40G,-1.34
22,U55G G113C,-0.955
23,G10U U92A A111G,-4.02
24,A46U G71A G93A G120A G122A,-3.97

row,Variant,polymerase ribozyme fitness (log ratio)
1,A74U U92G,-3.01
2,C11G U78C C102A A118U,-1.3
3,U7G G113A,-0.761
4,U9G G36A C70U,-0.939
5,C13U C73U G93C U106A A118G,-1.26
6,C40A G48A U55A G60U A95G G120C,-1.07
7,A41C G58A,-0.278
8,C89U G117A,-2.43
9,A26C G39U C114G,-6.59
10,C56G C97A,-5.24
11,C79G C114A C115G,-6.59
12,A6C A29U G45A G113U,-4.91
13,C12G C53U C64U U106C,-0.438
14,G60A C80U C89U,-2.13
15,G47A A50U U81A,-0.591
16,C34G C53G G61C U116C,-7.12
17,G39A A43U C88G C123A,-4.11
18,A18U C64U C97U U116C G120A,-4.84
19,C40G G44C A74U,-1.5
20,C20A U112A,0.09
21,C4A C8G A18C G23C U112G U116A,-5.14
22,C40G C62A C124A,-0.241
23,C8U C101A U112A,1.32
